T1: human NaPi2b (sodium-dependent phosphate transporter 2B) (human, UniProt O95436 1-690)
T1 sequence: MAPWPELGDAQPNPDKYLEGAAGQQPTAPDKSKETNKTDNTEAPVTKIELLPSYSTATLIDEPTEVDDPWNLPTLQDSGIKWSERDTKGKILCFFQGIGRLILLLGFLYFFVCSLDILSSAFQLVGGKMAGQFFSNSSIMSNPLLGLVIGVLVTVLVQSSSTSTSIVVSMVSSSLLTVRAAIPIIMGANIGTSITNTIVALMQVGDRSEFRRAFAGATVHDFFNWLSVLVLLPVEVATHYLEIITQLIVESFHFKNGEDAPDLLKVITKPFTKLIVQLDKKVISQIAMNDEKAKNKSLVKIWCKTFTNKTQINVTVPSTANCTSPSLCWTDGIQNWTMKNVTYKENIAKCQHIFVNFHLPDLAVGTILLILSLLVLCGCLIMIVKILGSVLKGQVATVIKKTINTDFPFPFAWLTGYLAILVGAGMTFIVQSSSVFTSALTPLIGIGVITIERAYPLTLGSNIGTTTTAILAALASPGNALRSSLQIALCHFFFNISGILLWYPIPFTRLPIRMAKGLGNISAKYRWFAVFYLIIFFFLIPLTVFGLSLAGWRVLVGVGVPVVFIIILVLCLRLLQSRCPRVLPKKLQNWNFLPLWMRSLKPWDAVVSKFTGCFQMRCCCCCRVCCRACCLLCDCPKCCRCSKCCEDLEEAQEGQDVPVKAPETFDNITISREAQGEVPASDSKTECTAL

T2: human sodium-dependent phosphate transporter 2B (NaPi2b) (human, UniProt O95436 1-690)
T2 construct: UniProt ID is given as 095436 [sic]; also called hNaPi2b; Hu NaPi2b
T2 sequence: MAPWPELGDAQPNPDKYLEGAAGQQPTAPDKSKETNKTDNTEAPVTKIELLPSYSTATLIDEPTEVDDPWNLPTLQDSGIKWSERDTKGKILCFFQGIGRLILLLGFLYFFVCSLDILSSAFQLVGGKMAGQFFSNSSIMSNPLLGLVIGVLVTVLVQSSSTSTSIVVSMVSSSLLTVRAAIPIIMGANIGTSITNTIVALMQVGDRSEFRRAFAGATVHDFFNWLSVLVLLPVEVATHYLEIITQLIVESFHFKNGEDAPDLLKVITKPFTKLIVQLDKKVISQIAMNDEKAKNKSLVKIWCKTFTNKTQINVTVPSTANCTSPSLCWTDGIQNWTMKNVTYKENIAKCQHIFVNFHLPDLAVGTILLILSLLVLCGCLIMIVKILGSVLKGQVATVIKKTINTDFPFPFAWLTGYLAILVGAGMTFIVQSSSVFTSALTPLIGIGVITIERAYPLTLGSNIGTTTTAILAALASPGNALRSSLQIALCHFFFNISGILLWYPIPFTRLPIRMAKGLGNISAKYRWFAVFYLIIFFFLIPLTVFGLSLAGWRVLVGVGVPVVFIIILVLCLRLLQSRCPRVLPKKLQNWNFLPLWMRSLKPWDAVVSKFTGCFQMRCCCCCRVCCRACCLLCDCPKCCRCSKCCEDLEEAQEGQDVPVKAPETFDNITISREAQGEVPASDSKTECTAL


Columns and labels:
[1] = target: T1, human NaPi2b (sodium-dependent …); experiment: cell-based or functional assay
[2] = target: T2, human sodium-dependent phosphate …; experiment: flow cytometry, IGROV-1 cells (endogenous NaPi2b); apparent Kd
Protocol: Briefly, cells were seeded at 50,000 cells/well in conical-bottom 96-well plates and treated with test antibody for 24 hours at 4° C. to prevent internalization. […] Following incubation and washing, fluorescence was detected by flow cytometry on a BD LSRFortessa™ Cell Analyzer (BD Biosciences, Franklin Lake, NJ) with 1,000 minimum events collected per well.

[3] = target: T2, human sodium-dependent phosphate …; experiment: flow cytometry, IGROV-1 cells (endogenous NaPi2b); set-up: unit not given here

Row | Binder | Kd [2] [nM] | Bmax [3] | other results
1 | palivizumab (anti-RSV antibody, v21995) (antibody, human IgG1, kappa, V domains shown) VH: QVTLRESGPALVKPTQTLTLTCTFSGFSLSTSGMSVGWIRQPPGKALEWLADIWWDDKKDYNPSLKSRLTISKDTSKNQVVLKVTNMDPADTATYYCARSMITNWYFDVWGAGTTVTVSS VL: DIQMTQSPSTLSASVGDRVTITCKSQLSVGYMHWYQQKPGKAPKLLIYDTSKLASGVPSRFSGSGSGTEFTLTISSLQPDDFATYYCFQGSGYPFTFGGGTKLEIKR | – | – | Internalized Fluorescence Fold-Over Untreated, H441, 4 h, 2.5 nM [1]: 1 fold; Internalized Fluorescence Fold-Over Untreated, H441, 24 h, 2.5 nM [1]: 1.1 fold; Internalized Fluorescence Fold-Over Untreated, HCC-78, 4 h, 2.5 nM [1]: 1 fold; Internalized Fluorescence Fold-Over Untreated, HCC-78, 24 h, 2.5 nM [1]: 1.1 fold; Internalized Fluorescence Fold-Over Untreated, IGROV-1, 4 h, 2.5 nM [1]: 0.9 fold; Internalized Fluorescence Fold-Over Untreated, IGROV-1, 24 h, 2.5 nM [1]: 1 fold
2 | v29455 (H2L2) (antibody, human IgG1, kappa, V domains shown, Humanized IgG1/kappa) VH: QVQLVQSGAEVKKPGASVKVSCKASGFTFTSYNVHWVRQAPGQGLEWIAAISPGNGDLSYAQKFQGRVTMTVDTSTSTVYMELSSLRSEDTAVYYCARGRTGMGAVDYWGQGTLVTVSS VL: DVQMTQSPSSLSASVGDRVTITCRASQDVYSYLNWYQQKPGKAVKLLIYYTSRLQSGVPSRFSGSGSGTDYTLTISSLQPEDFATYYCQQYNIFPWTFGQGTKLEIKR | 1.18 | 41900 | –
3 | v29459 (H2L1) (antibody, human IgG1, kappa, V domains shown, Humanized IgG1/kappa) VH: QVQLVQSGAEVKKPGASVKVSCKASGFTFTSYNVHWVRQAPGQGLEWIAAISPGNGDLSYAQKFQGRVTMTVDTSTSTVYMELSSLRSEDTAVYYCARGRTGMGAVDYWGQGTLVTVSS VL: DIQMTQSPSSLSASVGDRVTITCRASQDVYSYLNWYQQKPGKAPKLLIYYTSRLQSGVPSRFSGSGSGTDFTLTISSLQPEDFATYYCQQYNIFPWTFGQGTKLEIKR | 1.61 | 40900 | –
4 | v29457 (H4L1) (antibody, human IgG1, kappa, V domains shown, Humanized IgG1/kappa; clones CL_#21506 and CL_#21507) VH: QVQLVQSGAEVKKPGASVKMSCKASGFTFTSYNVHWVRQAPGQGLEWIAAISPGNGDLSYAQKFQGRATLTVDRSTSTAYMELSSLRSEDTAVYYCARGRTGMGAVDYWGQGTLVTVSS VL: DIQMTQSPSSLSASVGDRVTITCRASQDVYSYLNWYQQKPGKAPKLLIYYTSRLQSGVPSRFSGSGSGTDFTLTISSLQPEDFATYYCQQYNIFPWTFGQGTKLEIKR | 1.73 | 44500 | –
5 | v29449 (H4L3) (antibody, human IgG1, kappa, V domains shown, Humanized IgG1/kappa) VH: QVQLVQSGAEVKKPGASVKMSCKASGFTFTSYNVHWVRQAPGQGLEWIAAISPGNGDLSYAQKFQGRATLTVDRSTSTAYMELSSLRSEDTAVYYCARGRTGMGAVDYWGQGTLVTVSS VL: DVQMTQSPSSLSASVGDRVTITCRASQDVYSYLNWYQQKPGKAVKLLIYYTSRLQSGVPSRFSGSGSGTDYTLTISSLQPEDIATYYCQQYNIFPWTFGQGTKLEIKR | 0.79 | 44500 | –
6 | v29450 (H3L3) (antibody, human IgG1, kappa, V domains shown, Humanized IgG1/kappa) VH: QVQLVQSGAEVKKPGASVKMSCKASGFTFTSYNVHWVRQAPGQGLEWIAAISPGNGDLSYAQKFQGRATLTVDTSTSTAYMELSSLRSEDTAVYYCARGRTGMGAVDYWGQGTLVTVSS VL: DVQMTQSPSSLSASVGDRVTITCRASQDVYSYLNWYQQKPGKAVKLLIYYTSRLQSGVPSRFSGSGSGTDYTLTISSLQPEDIATYYCQQYNIFPWTFGQGTKLEIKR | 0.96 | 43800 | –
7 | v29454 (H3L2) (antibody, human IgG1, kappa, V domains shown, Humanized IgG1/kappa) VH: QVQLVQSGAEVKKPGASVKMSCKASGFTFTSYNVHWVRQAPGQGLEWIAAISPGNGDLSYAQKFQGRATLTVDTSTSTAYMELSSLRSEDTAVYYCARGRTGMGAVDYWGQGTLVTVSS VL: DVQMTQSPSSLSASVGDRVTITCRASQDVYSYLNWYQQKPGKAVKLLIYYTSRLQSGVPSRFSGSGSGTDYTLTISSLQPEDFATYYCQQYNIFPWTFGQGTKLEIKR | 0.92 | 42300 | –
